Results taken from article PMC2670261, “Characterization of the interaction between Actinin-Associated LIM Protein (ALP) and the rod domain of α-actinin” (BMC Cell Biology, 2009).
Values belong to the molecule of their own block, whether it stands above or below them.

What was measured:
[1] = biological target: ALP107-273 (internal region fragment of actinin-associated LIM protein, residues 107-273) (human); assay: SPR; Biacore 3000; ALP107-273 or peptide 3 immobilised by amine coupling on CM5; R1-R4 or R2-R3 as soluble analyte; 20 mM Tris pH 7.4, 150 mM NaCl, 0.005% P20; apparent Kd
[2] = biological target: T1, α-actinin rod domain, spectrin repeats 1–4 (R1-R4) of human α-actinin 2 (Homo sapiens, UniProt P35609); assay: SPR interaction with α-actinin rod R1-R4; format: binding; settings: for Kd: SPR, 20 mM Tris pH 7.4, 150 mM NaCl, 0.005% P20
T1 construct: Rod fragments containing spectrin repeats 1–4 (residues 274–746); His-tag (cleaved yes); made in house; host or cells: Escherichia coli BL21(DE3)
T1 sequence (P35609 274-746): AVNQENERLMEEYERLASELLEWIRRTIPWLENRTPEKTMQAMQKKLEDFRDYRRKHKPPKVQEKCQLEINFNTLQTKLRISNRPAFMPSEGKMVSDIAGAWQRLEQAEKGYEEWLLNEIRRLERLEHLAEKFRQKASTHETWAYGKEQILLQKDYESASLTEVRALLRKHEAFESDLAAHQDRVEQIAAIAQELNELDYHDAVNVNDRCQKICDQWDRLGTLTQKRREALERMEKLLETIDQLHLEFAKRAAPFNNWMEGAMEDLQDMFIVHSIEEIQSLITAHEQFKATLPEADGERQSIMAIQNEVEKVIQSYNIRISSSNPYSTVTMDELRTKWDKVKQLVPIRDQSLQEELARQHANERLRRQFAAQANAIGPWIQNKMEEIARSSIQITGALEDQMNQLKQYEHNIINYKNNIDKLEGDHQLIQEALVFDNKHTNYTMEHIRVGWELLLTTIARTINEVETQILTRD
Description: (§1) Internal fragments of human ALP (AF039018) and chicken ALP (AJ249218) were cloned into a modified pET24d vector (Novagen, Merck Biosciences, Schwalbach, Germany) as described earlier using BsmBI (NcoI)- NotI cloning sites. Rod fragments containing spectrin repeats 1–4 (residues 274–746) or repeats 2 and 3 (residues 371–637) of human α-actinin 2 have been described previously. A YFP-fusion of ALP107-273 was generated in a pEYFP-C1 vector (Clontech, BD Biosciences) at an EcoRI-BamHI restriction site. The deletion constructs of pEYFP-ALP107-273 were generated by PCR. The α-Actinin-CFP construct is described elsewhere. All constructs were verified by DNA sequencing.
(§2) ALP internal fragments and an α-actinin rod containing the spectrin repeats 1–4 (R1-R4) and a fragment containing spectrin repeats 2 and 3 (R2-R3) were expressed at +37°C for 3–4 h in Escherichia coli BL21(DE3) strain as previously described. Briefly, proteins were purified using nickel nitrilotriacetic acid-agarose (Qiagen) as a first step. The His-tag was removed by tobacco etch virus protease (Invitrogen). For further purification, size exclusion chromatography (Superdex 75 16/60 and 26/60 columns, Amersham Biosciences) for ALP, and ion exchange (ProteinPakQ 8HR columns, Waters) for α-actinin fragments were used. The molecular weight standards for the gel filtration were obtained from Bio-Rad Laboratories. For NMR analysis, ^15N-labelled ALP107-273 and ^15N^13C-labelled ALP107-273 were produced in general M9-media with supplements. Expression was induced with 1 mM isopropyl-1-thio-β-D-galactopyranoside (IPTG) at +37°C for 8 hrs in E. coli BL21(DE3) strain. Low molecular weight markers used in SDS-polyacrylamide electrophoresis were obtained from Amersham Biosciences. Five ALP peptides were purchased from EZBiolab Inc. (Westfield, IN, USA).
A Biacore 3000 system (Biacore, Uppsala, Sweden) was used for surface plasmon resonance (SPR) analysis. Ligand immobilization was performed via amine coupling to gold sensor chips (CM5). […]

[3] = biological target: α-actinin 2 rod domain, spectrin repeats 1-4 (R1-R4) (human) (UniProt P35609); assay: SPR; Biacore 3000; α-actinin rod fragment (R1-R4 or R2-R3) immobilised by amine coupling on CM5; ALP107-273 or ALP peptides as soluble analyte; 20 mM Tris pH 7.4, 150 mM NaCl, 0.005% P20; apparent Kd
Sequence of α-actinin 2 rod domain, spectrin repeats 1-4 (R1-R4) (human) (P35609 274-746): as above

[4] = test system: U2OS cells, α-actinin in actin stress fibres; assay: Live cell localization of YFP fusion with α-actinin-CFP; format: cell-based, human; settings: YFP fusion expressed with α-actinin-CFP in living U2OS cells
Description: as §1
Human osteosarcoma (U2OS) cells were maintained in Dulbecco's modified Eagle's medium (DMEM) supplemented with 10% fetal bovine serum (Hyclone), 2 mM L-glutamine, penicillin and streptomycin (Sigma-Aldrich). Transfected cells were re-plated on fibronectin (10 μg/ml) coated glass bottom dishes (MatTek). General growth medium was used as imaging medium. The time lapse images were acquired with an IX-71 inverted microscope (Olympus) equipped with a Polychrome IV monochromator (TILL Photonics) with the appropriate filters, an Andor iXon (Andor) camera, a heated sample environment (+37°C) and CO2-control. A PLAPON 60xO TIRFM 60x/1,45 (oil) objective (Olympus) was used. […]

[5] = biological target: T2, α-actinin spectrin repeats 2–3 (R2-R3) of human α-actinin 2 (Homo sapiens, UniProt P35609); assay: SPR interaction with α-actinin R2-R3; format: binding; settings: Biacore 3000, R2-R3 immobilized, ALP107-273 as analyte
T2 construct: repeats 2 and 3 (residues 371–637) of human α-actinin 2; His-tag (cleaved yes); made in house; host or cells: Escherichia coli BL21(DE3)
T2 sequence (P35609 371-637): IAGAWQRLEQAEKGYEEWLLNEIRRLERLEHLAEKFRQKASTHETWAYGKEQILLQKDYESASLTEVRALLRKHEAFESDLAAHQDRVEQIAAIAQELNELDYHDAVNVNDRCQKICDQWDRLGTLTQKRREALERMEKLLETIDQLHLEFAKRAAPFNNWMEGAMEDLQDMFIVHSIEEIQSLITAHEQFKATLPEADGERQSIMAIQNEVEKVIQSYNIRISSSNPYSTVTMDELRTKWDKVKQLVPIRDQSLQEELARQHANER
Description: as §1
ALP internal fragments and an α-actinin rod containing the spectrin repeats 1–4 (R1-R4) and a fragment containing spectrin repeats 2 and 3 (R2-R3) were expressed at +37°C for 3–4 h in Escherichia coli BL21(DE3) strain as previously described. Briefly, proteins were purified using nickel nitrilotriacetic acid-agarose (Qiagen) as a first step. The His-tag was removed by tobacco etch virus protease (Invitrogen). For further purification, size exclusion chromatography (Superdex 75 16/60 and 26/60 columns, Amersham Biosciences) for ALP, and ion exchange (ProteinPakQ 8HR columns, Waters) for α-actinin fragments were used. The molecular weight standards for the gel filtration were obtained from Bio-Rad Laboratories. […]

[6] = Concentration reached after purification; format: physicochemical; settings: purified protein fragment
Description: as §2

[7] = test system: CHO cells, stress fibres; assay: Localization of YFP-ALP107-273 mutants at stress fibres; format: cell-based; settings: YFP fused to ALP107-273 with deletions or mutations; CHO cells 24 h after transfection, 4 h on fibronectin; blinded scoring
Description: as §1
The pEYFP ALP107-273 and mutants were transfected into CHO cells as described previously. Following 24 hrs transfection, the cells were seeded for 4 hrs on coverslips coated with 10 μg/ml human plasma fibronectin (Sigma) and fixed with 4% paraformaldehyde in 140 mM NaCl, 10 mM Na-Phosphate pH 7.4. The coverslips were coded and the number of cells with YFP localization at stress fibres was counted by two observers who were blinded to the identity of the samples. At least 100 cells were scored from each coverslip, four coverslips were used per transfection, and the experiment was repeated at least three times.

[8] = biological target: T3, α-actinin 2 rod domain, spectrin repeats 1-4 (R1-R4) (human, UniProt P35609 274-746); assay: SPR; Biacore 3000; ALP107-273 or peptide 3 immobilised by amine coupling on CM5; R1-R4 or R2-R3 as soluble analyte; 20 mM Tris pH 7.4, 150 mM NaCl, 0.005% P20; apparent Kd; settings: both partners purified
T3 construct: α-actinin 2, human, spectrin repeats 1-4, residues 274-746; also called α-actinin rod; α-actinin rod region; source: E. coli BL21(DE3), purified (Ni-NTA, TEV removal of the His-tag, ion exchange)
T3 sequence (P35609 274-746): as the sequence (P35609 274-746) above

Molecule: α-actinin 2 rod domain, spectrin repeats 1-4 (R1-R4) (from UniProt P35609 274-746) (domain or fragment)
Kd [1]: 4500 nM

Molecule: ALP107-273 (internal region fragment of actinin-associated LIM protein, residues 107-273) (domain or fragment)
Kd [3]: 270 nM

B2: YS197-198FA: YFP-ALP107-273 point mutant, conserved tyrosine and serine of ZM motif changed to phenylalanine and alanine (protein, UniProt Q53GG5 107-273, looked up, variant Y197F S198A)
chain: SEPQDGNYFEHKHNIRPKPFVIPGRSSGCSTPSGIDCGSGRSTPSSVSTVSTICPGDLKVAAKLAPNIPLEMELPGVKIVHAQFNTPMQLFADDNIMETLQGQVSTALGETPLMSEPTASVPPESDVYRMLHDNRNEPTQPRQSGSFRVLQGMVDDGSDDRPAGTRS
modifications: residues 107-273 YFP fusion
notes: YFP-ALP107-273 point mutant, conserved tyrosine and serine of ZM motif changed to phenylalanine and alanine
YFP localization at stress fibres [7]: abrogated localization

Continued, in another order:

interaction with the rod domain in SPR ([2]; comparison with peptide 3 (Fig 7D)): did not interact
Molecule: MNKPEQALLVQIHPLVTEPFMG [scrambled version of peptide 3, scrambled peptide 3 containing the same amino acids in random order, reference compound]

Kd ([2]; Biacore 3000, CM5 amine coupling, R1-R4 immobilized, ALP107-273 as analyte): 270 nM
Kd ([2]; Biacore 3000, immobilized ALP107-273, soluble R1-R4): 4500 nM
Kd [5]: 6.8 nM
B1: ALP107-273: 167 residue construct of the human ALP internal region, residues 107–273; used as YFP fusion in cells (protein, UniProt Q53GG5 107-273, looked up, fragment)
chain: SEPQDGNYFEHKHNIRPKPFVIPGRSSGCSTPSGIDCGSGRSTPSSVSTVSTICPGDLKVAAKLAPNIPLEMELPGVKIVHAQFNTPMQLYSDDNIMETLQGQVSTALGETPLMSEPTASVPPESDVYRMLHDNRNEPTQPRQSGSFRVLQGMVDDGSDDRPAGTRS
modifications: YFP fusion
notes: 167 residue construct of the human ALP internal region, residues 107–273; used as YFP fusion in cells
co-localization with α-actinin [4]: co-localized with α-actinin in the stress fibres
concentration to which the purified fragment could be concentrated [6]: up to 30 mg/ml

Kd [8]: 3000 nM
B3: ALP peptide 3 (residues 175-196) (peptide)
peptide: PLEMELPGVKIVHAQFNTPMQL
notes: source: synthetic peptide, bought: EZBiolab Inc
